Results taken from publication PMC9113939, “Snapshots of actin and tubulin folding inside the TRiC chaperonin” (Nature Structural & Molecular Biology, 2022).

Columns and labels:
Conditions in all cases: both partners purified
[1] = molecular target: T1, recombinant human CCT5 homo-oligomer (hexadecameric form, CCT5_(16)) (Homo sapiens (Human)., UniProt P48643, biotin (for BLI)); test: BLI; Octet RED384, 25 °C, 20 mM HEPES pH 7.5, 150 mM NaCl, 0.1% BSA; biotinylated CCT5 on streptavidin sensors; Nb18 40 μM to 39 nM; steady-state fit
T1 construct: it mentions that recombinant CCT5 was earlier made with a C-terminal His-tag; also called recombinant CCT5; overexpressed CCT5; source: E. coli, recombinant; copies: 16

recombinant CCT4 = molecular target: T2, recombinant CCT4 (Homo sapiens, UniProt P50991); test: as above
T2 construct: CCT4 subunit of TRiC, expressed recombinantly; Construct not described

[2] = molecular target: T3, endogenous human TCP-1 ring complex (TRiC), CCT5 tagged with 3×FLAG/Spytag (human, UniProt P17987;P78371;P49368;P50991;P48643;P40227;Q99832;P50990); test: cryo-EM structure; purified TRiC (1.5 mg/ml) premixed with Nb18 at 1:1 molar ratio, 1 mM ATP, 5 mM MgCl2, AlFx; closed and open states
T3 construct: CCT1 subunit of human TRiC; CCT2 subunit of human TRiC; CCT3 subunit of human TRiC; CCT4 subunit of human TRiC; CCT5 subunit of human TRiC, tag knocked into the genomic locus; CCT6 subunit of human TRiC; predominantly the CCT6A isoform by MS/MS and side-chain modelling; CCT7 subunit of human TRiC; CCT8 subunit of human TRiC; Hexadecamer of two back-to-back rings of eight paralogous subunits; also …

T1 sequence (P48643 whole entry): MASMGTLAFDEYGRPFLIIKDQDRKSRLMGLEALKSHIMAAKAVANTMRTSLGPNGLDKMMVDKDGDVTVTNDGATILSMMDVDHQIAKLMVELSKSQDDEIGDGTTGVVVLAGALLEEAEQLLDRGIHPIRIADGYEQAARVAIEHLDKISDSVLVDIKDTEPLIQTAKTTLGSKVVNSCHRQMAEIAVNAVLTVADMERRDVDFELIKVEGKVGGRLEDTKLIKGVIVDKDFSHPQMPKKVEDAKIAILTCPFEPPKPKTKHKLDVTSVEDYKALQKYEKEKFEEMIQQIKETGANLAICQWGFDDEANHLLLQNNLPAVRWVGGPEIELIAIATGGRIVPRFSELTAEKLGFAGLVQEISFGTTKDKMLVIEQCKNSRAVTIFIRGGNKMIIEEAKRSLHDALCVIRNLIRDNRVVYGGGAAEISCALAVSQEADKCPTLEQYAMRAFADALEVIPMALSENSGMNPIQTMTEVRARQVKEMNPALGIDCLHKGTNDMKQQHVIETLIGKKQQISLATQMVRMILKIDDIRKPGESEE
T2 sequence (P50991 whole entry): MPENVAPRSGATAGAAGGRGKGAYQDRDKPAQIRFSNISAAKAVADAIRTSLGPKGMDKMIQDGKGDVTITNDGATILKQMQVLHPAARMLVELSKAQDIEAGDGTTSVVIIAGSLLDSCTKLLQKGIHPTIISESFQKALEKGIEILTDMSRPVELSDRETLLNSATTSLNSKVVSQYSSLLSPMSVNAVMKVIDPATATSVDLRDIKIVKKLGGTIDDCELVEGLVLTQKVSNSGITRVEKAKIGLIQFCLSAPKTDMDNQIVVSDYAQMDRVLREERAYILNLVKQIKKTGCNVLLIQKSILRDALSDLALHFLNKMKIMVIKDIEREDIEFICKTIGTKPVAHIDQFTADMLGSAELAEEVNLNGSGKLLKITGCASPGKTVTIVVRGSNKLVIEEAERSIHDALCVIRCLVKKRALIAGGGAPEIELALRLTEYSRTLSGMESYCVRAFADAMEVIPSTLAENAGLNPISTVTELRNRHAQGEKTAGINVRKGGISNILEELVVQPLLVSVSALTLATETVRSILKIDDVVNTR

B1: nanobody Nb18 (VHH)
VHH: QVQLVESGGGLVQAGGSLRLSCGASGTFFRINDMGWYRQASGKQRELVASITRGGTTDYADSVKGRFTISRDNAKNTVYLQMNSLKPEDTAVYYCKANRNWGREWDDYWGQGTQVTVSS
notes: Nb18 is modelled in the TRiC–Nb18 structure solved here (PDB 7NVL); llama nanobody raised against CCT5 homo-hexadecamer, in vector pMESy4; Starting model was a homology model on PDB 6QX4 chain C (another nanobody); also called CA14679; source: E. coli, purified (Ni-NTA, SEC)
In the case of B1, the Kd [1] is reported as 86 nM, the binding result (recombinant CCT4) is reported as “no binding (tested: Nb18 40 μM to 39 nM (methods))” and the “stoichiometry N” value [2] is reported as 2.
